The text below walks through data of the DeepSol protein solubility set.

The series in a line: soluble on expression in E. coli; label from the status in PepcDB or PDB records.
Turning to “SAFPIDLRGQTAFVAGVADSHGYGWAIAKHLASAGARVALGTWPPVLGLFQKSLQSGRLDEDRKLPDGSLIEFAGVYPLDAAFDKPEDVPQDIKDNKRYAGVDGYTIKEVAVKVKQDLGNIDILVHSLANGPEVTKPLLETSRKGYLAASSNSAYSFVSLLQHFGPIMNEGGSAVTLSYLAAERVVPGYGGGMSSAKAALESDTRTLAWEAGQKYGVRVNAISAGPLKSRAASAIGKSGEKSFIDYAIDYSYNNAPLRRDLHSDDVGGAALFLLSPLARAVSGVTLYVDNGLHAMGQAVDSRSMPPLQRATQEIN”, the “soluble on expression in E. coli” value is on record as “soluble”.
For the sequence “MSLRIFLCGCVHGSWEVVVNEVNKLVAKGTKIDLIIVAGDTESFRSKSDLESYNYQRQNHDLGTFHKLVSGELKLPCKMLMIGGNNEVGDMIFQLPFGGWVTPDIFFAGINSQIYFGDLLITCQSGIMNGQDYHKCISEKFPVRGCDTHLILHIREVSIFQLYGLKNVPLFVSHEWPSGIPKQYRNIPRMQFYAKSDDKNDFGCPGFVKLLNKHRPKKWYAAHLHVRFDCTLKNGTKFTGVPKVIDKRYKWYELEEYNCNPAGGFKFSGEWINIVKNTERFVKNPKLLQNLDWDEEWRKIYETMNTEDFPEKVDVMEYNDDYQIQTKKFCDSYQIYNPYKEGHHHHHH”, the “soluble on expression in E. coli” value is “soluble”.
For the sequence “MREKIDALTQNLNRTIVGKTEAIRLVLVALIGGGHALLEDVPGVGKTLLAKSLARSLDGTFQRLQCTPDLLPTDITGTNIWNPKSGEFSFMPGPVFANVVLADEINRATPRTQSALLEVMEEQQVTVDGVSRTVPHPFFVIATQNPVEYQGTFPLPEAQMDRFMLSLSLGYPGVDEELEMLQNLQHGIKVGDLQPCLTLAEVAELRDICSQVKVETVLQQYILELVRATRQDEEITLGVSPRGTVALHKATQALAFLLGRDYAIPDDVKFLAPHVLCHRLIPRGGRSARSIVDRLLRSLPIPLEHHHHHH”, the “soluble on expression in E. coli” value is given as “soluble”.
The same measure for “MKIMCKQEYYNQVVQYAESIKDTSLQNCMERLEAWEKNPDRPCEIELYHDWAPYSFGFTQRYPDGSRGIVGGLLYHGSPDESFAVQLTPFKGWQIHT”: “not soluble”; for “MGSDKIHHHHHHMRKRRVYWTLFITAFAWLASCSDDDINGSSGFNPNQPIEITEFYPDSGGIATPMIIEGRNFGTDTTGMKVYFEDVDGIRHPAGLVSSNGSRIYAFVPKGLTFKREMNILVERRTPDGQEYIGKAPDQFLYKTQTSVSTVAGLASPDNNINTVGGDLATCTFSSPFYLCIDGEDNIFVVDRKGDSGKDKQPNTTCRNEKGEGVNGNISMISIASNSSIVLKYGTAYINAPAYSDEKDAEAVYIPDDAGMKYYDMQKLLNYVPRYRTVLKSEELSTVDENNWKHCFVINKLDHMIYTVMWKGQLVRINPKNRTAEILLKKISNVATGDGGKAGSDSYIAFSPIKGEENVLYVSLADFHQIWRVDVSKITPEDKDTYNGESYAGKAIYEGVMNGKGWEDGLLKNAKFRHPRQICFTDDGKMYIADSGNSCIRVIDTTMPKERAAVTTPIGLPGAEGYKDGGPEIAKFHFPCGVAVNSDGTIVYVADTQNKVIRKLSIE”: “not soluble”.
On to “MNQTAAFSEVEMSIVVPKESDIKDVSQLTSVQAPTKVDKNNIEILMSALKKDKKVDVKVDDVASYQEAYDNLKSGKSKAMVLSGSYASLLESVDSNFASNLKTIYTYKIKKKNSNSANPVDSKVFNIYISGIDTYGPISTVSRSDVNIIMTVNMNTHKILLTTTPRDAYVKIPGGGADQYDKLTHAGIYGVETSEQTLEDLYGIKIDYYARINFTSFLKLIDQLGGVTVHNDQAFTQGKFDFPVGDIQMNSEQALGFVRERYNLDGGDNDRGKNQEKVISAILNKLASLKSVSNFTSIVNNLQDSVQTNMSLDTINALANTQLDSGSKFTVTSQAVTGTGSTGQLISYAMPNSSLYMMKLDNSSVASASQAIKNLMEEKLEHHHHHH”, for which the “soluble on expression in E. coli” value is “soluble”.
Regarding “MGSDKIHHHHHHMEWEVFEYRTKGIMAEIEAGRLKIVSSYVDKSFSARVILKGRVGFASASTRDEALSLAEKIARISEDELEDFPNEKPASVKGIYDKRVEEADSELIMEEFERLRSAVEKANIASATIEHAVEEVRITNSFGLDSREKSTSSSMIVEAVFEGGSAYEVCGSRSIELDIEGAAKKAEELAVDSAKAIKIEGGTYDVILQPIAVHQLLSNTLYPSLSAENVEKGRSVIRLGDEFGRITVIDDPTVEGGLMSCGFDDEGVSARKTFLIDNGVVRSYYTDWKHSKKYGVTGNGFRLEESSFPAPMVSNVVLEVDDADDDNCLTIHSLIGSHTANPVSGDFSLECNNAYFGEKAVKGAMIYGNVFELLKKVEGGLGELRQIENTVTKSLRFRSVRVI”, the “soluble on expression in E. coli” value was “not soluble”.
Turning to “MAHHHHHHMDAPEWTKDAQSIQGAKDYVRQASIVDFYEMICRNIFTHHPANLTEFCLRIVKDIMNGTEITSAADFQPKRIDDNKYMRDMAMCSFLDGWILELLRERPGTHLERMEFHKRYLEGLQSESDTGK”, the “soluble on expression in E. coli” value is reported as “soluble”.
For the sequence “FNKELDPVQKLFVDKIREYRTKRQTSGGPVDAGPEYQQDLDRELFKLKQMYGKADMNTFPNFTFEDPKFEVVEKPQS”, the “soluble on expression in E. coli” value was “soluble”.
In the case of “MILQELPDLEELFLCLNDYETVSCPSICCHSLKLLHITDNNLQDWTEIRKLGVMFPSLDTLVLANNHLNAIEEPDDSLARLFPNLRSISLHKSGLQSWEDIDKLNSFPKLEEVRLLGIPLLQPYTTEERRKLVIARLPSVSKLNGSVVTDGEREDSERFFIRYYVDVPQEEVPFRYHELITKYGKLEPLAEVDLRPQSSAKVEVHFNDQVEEMSIRLDQTVAELKKQLKTLVQLPTSNMLLYYFDHEAPFGPEEMKYSSRALHSFGIRDGDKIYVESKTK”, the “soluble on expression in E. coli” value is recorded as “soluble”.
“MGSDKIHHHHHHMAVECIKDKVTRYPERASYSDEDLVAMLDRNFTCTVSFIDGGIPYAIPMMLASEGKTIYLHGSMKSRIYGILKTGQLIAISLLEINGIVLAKEIKNNSINYVSALIFGRPYEIDDTEKKIEVFRLLTEKLVKGRRDNSIKPSYEDLNGVFVFAVKPETFSMKARTGPPHDTSTDDIWSGVLPIQHTISEAGENAPEYVKSLYGKRIFI”: the “soluble on expression in E. coli” value was “not soluble”.
In the case of “MRITVLILSTLLVTILNGLPIVPVVEDSISPEEVPEPSPEIEENTVPPPRVISPRVDVSVDVNEDGVLDIDEIRYAAFVHHGLSASVVEDLFKQVDTNRDNVLDAREFDAIRMLVLEKAENAALRYLQNVDTDRDGLLSLQEAQIYLLREYGIGYHDVARLWKLVPADLSDRMNSTLFSKLRRRVRGMTIRLARQIMKNADLNGDGHISVDEAQAIAFEQEGIGAGDVASMVGSVDENMDGELNAPEFADFERIIRARAIENSKKAMRVVDADNSGTLTLDEAKRVAFEHYGFDEATLAPFFGQADENEDGQLDNVEFAGFRSVIRARSVRDAMDKMKRIDTNGDGLVSNAEATDSTKKEDDMDSEETLALFNIADQNKSGKLDKVELADFNRLVRLSSIKFATDHFKEFDLDGNDAVTFDEIALLIEQKYGIPRSMIKTFFDRIDVDGSGDLMPAEIVDFRHLIRNHVSQQRQEKVYFLTL”, the “soluble on expression in E. coli” value is listed as “not soluble”.
For the sequence “MTRYLDISLGIVRDYYEAAPVKVVFVKDHPRLPTPGGIINARRGDEVELPRWQARMLREKGYVEYKEKIVDIDYVNLVHYHEVKKSAANSLLGVPSDFYLRVKELVEDLDRRIRENPGYMLFQDRENVERAIMQISERRLVKMMRLVLSGGGEEVRERLTVEENLVYSMAEEVVKGWKEYVKSLVGRR”, the “soluble on expression in E. coli” value was “not soluble”.
Consider “MKIAVVGAGLTGLKTAKELAEHAKVVVFEPDDVGGLVATFREFSIEKFYHHCFRDDAFLLEEIKRCGLKSKLVWKIAKTGFAANGKIYPLNTPFEILRYPLLTFGEKIRLARFTLKSRKLNYEDFDDVGVSEGIREELGEGLLERFFMPLLRSKFGENAEKVSYAWLLGRVAIRSNRKYSGEEIGYIRHGFQQLVDKMAEGLEIRRERARIRKNARWDVNGEDFDAVVYTAPLSELGELAEKLGIPEVRYQSSVCALIGAEETLTENIYWTNIADKMSFGAVIEHTNFMPFEDYGIHLMYLAAYSTPDGWLFNLSDKEIEKLFLSDLRKLGFKTESVRFVRVFKAKYSGPIYEKGYRRKITPYRVAEGFYVAGMTSRPNYPERSMNGSIRAGKEVAEQVKEDLLLEHHHHHH”, for which the “soluble on expression in E. coli” value was “soluble”.
The same measure for “MGSSHHHHHHSSGLVPRGSHMGHGSRLPYGEEVINGIADIYRQEADHPVAVGFMNMSRPSIPEAINELAAMGVEKIIVTPVFLAHGVHTKHDIPHILGLDNGAEGHHHHEHEHEHEEFEFDGEIVYTEPLGADPRIAEIIRDRVKSAI”: “soluble”.
As for “LGECLADLAVDALIDEAELSPKPALVDRRGNGAHADLHLGLMQASALSLWPCFKEMADAAQRHGRIDARLRGVLGQLGRDGEAAMLRTTEGVNTHRGAIWALGLLVAAAALEPRRTQAGEVAARAGRIALLDDPAAAIGDSHGERVRRRYGVGGAREEARLCFPRAVRHGLPQLWRSREGGAGEQNARLDALLAIMSVLDDTCVLHRAGRVGLAAMQDGARAVLAAGGSASLAGRRRLCELDRRLLALNASPGGAADLLAACLFLDRLPAVSGGWAGSL”, the “soluble on expression in E. coli” value was “not soluble”.
For the sequence “MGGKKFQAMPQLPSTVLDRVFEQARQQPEAIALRRCDGTSALRYRELVAEVGGLAADLRAQSVSRGSRVLVISDNGPETYLSVLACAKLGAIAVMADGNLPIAAIERFCQITDPAAALVAPGSKMASSAVPEALHSIPVIAVDIAAVTRESEHSLDAASLAGNADQGSEDPLAMIFTSGTTGEPKAVLLANRTFFAVPDILQKEGLNWVTWVVGETTYSPLPATHIGGLWWILTCLMHGGLCVTGGENTTSLLEILTTNAVATTCLVPTLLSKLVSELKSANATVPSLRLVGYGGSRAIAADVRFIEATGVRTAQVYGLSETGCTALCLPTDDGSIVKIEAGAVGRPYPGVDVYLAATDGIGPTAPGAGPSASFGTLWIKSPANMLGYWNNPERTAEVLIDGWVNTGDLLERREDGFFYIKGRSSEMIICGGVNIAPDEVDRIAEGVSGVREAACYEIPDEEFGALVGLAVVASAELDESAARALKHTIAARFRRESEPMARPSTIVIVTDIPRTQSGKVMRASLAAAATADKARVVVRG”, the “soluble on expression in E. coli” value is “soluble”.
As to “MAHHHHHHMSGQAGKQVAPVKCKGWAVEKPALKWSTDAVRLSDVTVPAPDPTQIRVRVYAASINPVDWKRVMFPASGSGPGVAGSALKGFKGMHHKPPNYPYPYVVGVDGAGEVESVGRKVTGLKAGDRVMFHSSLTNAHGGSLCEYAVMEESVAVPIPADGARPFSYEEAAAIPCATWTAYVALFDKLRIEPGRSIFVDGASGAVGSCAVQLAHHMGLYVFASCSPSNADYVRSIGADQVLNYHDGIEMVDQILDATEGYGVDYYLAVTNTQDAESFTDALRFGGAVCLLSGVLIPNSNVLFRRQLSVHYVFLNGLHGHPLTRPQLRYIGDQVAKLYQSGAFRLDVEVLPFAEAAKALDRSATGNVNHKKLIVQVASP”, the “soluble on expression in E. coli” value is reported as “soluble”.
“MLKVLVVDDEMLARDELKYLLERTKEVEIIGEADCVEDALEELMQSRPDIVFLDIQLSDDNGFEIANILKKMKNPPAIVFATAYDQYALQAFEVDALDYILKPFDEERIVQTLKKYKKQKQSQIETKHEIKGTDVTVEMHKLALPIEESIVLVNIEDIVYVGLVDGKVTVKTMRETYVTHDTLVILEKKLPQVSFMRVHRSFIANINHITEIQPWFNSTYNLIMKEGSKVPVSRTYAKELKKLLRI”: the “soluble on expression in E. coli” value is on record as “not soluble”.
Turning to “MGSDKIHHHHHHMLSTAKERQLKIVNRLKVEQFMRIIDLVELVNYSEATVKRDLVELEKEGLVRRTRGGAMIIDNKKIDLPYLMKMNERSNETSKIRIADIAKSLIRDDMVIFLDSSSTSLHLIDVLSKFDGLQIITNGVMTASMLSEFTNARVSILGGSILTKRYTVNGAKAYNDALTYNADIAFVSCRGIDYDKGATETHEGEALIKQAFRRQSSSLVLLVTEEKVGHKFMHQSLACHDIDYLITDFKLDSDVEEQFKTHQITCLY”, the “soluble on expression in E. coli” value was “not soluble”.
